One molecule from patent US20110088129A1 can be followed below.

The target in test [1] is binding sites in brush border membrane vesicles (BBMV) from midguts of last instar Helicoverpa zea larvae (Helicoverpa zea). Kind of test: homologous competition on H. zea BBMV.
Test [2] concerns the target binding sites in brush border membrane vesicles (BBMV) from midguts of last instar Helicoverpa armigera larvae (Helicoverpa armigera). Kind of test: homologous competition on H. armigera BBMV.
The target in test [3] is binding sites in brush border membrane vesicles (BBMV) from midguts of last instar Helicoverpa zea larvae (Helicoverpa zea). Description: homologous competition, 125I-Cry2Ab on H. zea BBMV, LIGAND program.
The target of test [4] is binding sites in brush border membrane vesicles (BBMV) from midguts of last instar Helicoverpa armigera larvae (Helicoverpa armigera). Kind of test: homologous competition, 125I-Cry2Ab on H. armigera BBMV, LIGAND program.
For test [5] the target is unchanged. Description: direct saturation assay, increasing 125I-Cry2Ab on fixed H. armigera BBMV (0.2 mg/ml).

B1: Cry2Ab toxin (trypsin-activated Cry2Ab2 from recombinant B. thuringiensis strain BtIPS78/11) (ligand)
chain: NAVPLSITSSVNTMQQLFLNRLPQFQMQGYQLLLLPLFAQAANLHLSFIRDVILNADEWGISAATLRTYRDYLKNYTRDYSNYCINTYQSAFKGLNTRLHDMLEFRTYMFLNVFEYVSIWSLFKYQSLLVSSGANLYASGSGPQQTQSFTSQDWPFLYSLFQVNSNYVLNGFSGARLSNTFPNIVGLPGSTTTHALLAARVNYSGGISSGDIGASPFNQNFNCSTFLPPLLTPFVRSWLDSGSDREGVATVTNWQTESFETTLGLRSGAFTARGNSNYFPDYFIRNISGVPLVVRNEDLRRPLHYNEIRNIASPSGTPGGARAYMVSVHNRKNNIHAVHENGSMIHLAPNDYTGFTISPIHATQVNNQTRTFISEKFGNQGDSLRFEQNNTTARYTLRGNGNSYNLYLRVSSIGNSTIRVTINGRVYTATNVNTTTNNDGVNDNGARFSDINIGNVVASSNSDVPLDINVTLNSGTQFDLMNIMLVPTNISPLY
modifications: 125I label (chloramine T method) where used as the labelled ligand
As usually defined, the Kd is the constant that tells how readily two partners part at equilibrium. In test [1], B1 displayed a fold difference in concentration of binding sites between Cry2Ab and Cry1Ac of 3 fold; a fold higher Kd than Cry1Ac of 35 fold. Besides, in test [2], the fold difference in concentration of binding sites between Cry2Ab and Cry1Ac stood at 3 fold; the fold higher Kd than Cry1Ac came out at 35 fold. Besides, in test [3], the Kd was 5.9 nM and the Rt (binding site concentration) (pmol/mg BBMV protein) is 2.7. In test [4], this molecule showed a dissociation constant (Kd) of 3.1 nM and a Rt (binding site concentration) (pmol/mg BBMV protein) of 2.5. In test [5], this molecule displayed a concentration at which binding reached a maximum of 20 nM and a concentration at which the saturation curve deviated from linearity of 5 nM.
